From IntAct's records for PubMed 31515488

B1: Tuftelin-interacting protein 11 (Homo sapiens), Q9UBB9 (parent)
chain: MSLSHLYRDGEGRIDDDDDERENFEITDWDLQNEFNPNRQRHWQTKEEATYGVWAERDSDDERPSFGGKRARDYSAPVNFISAGLKKGAAEEAELEDSDDEEKPVKQDDFPKDFGPRKLKTGGNFKPSQKGFAGGTKSFMDFGSWERHTKGIGQKLLQKMGYVPGRGLGKNAQGIINPIEAKQRKGKGAVGAYGSERTTQSMQDFPVVDSEEEAEEEFQKELSQWRKDPSGSKKKPKYSYKTVEELKAKGRISKKLTAPQKELSQVKVIDMTGREQKVYYSYSQISHKHNVPDDGLPLQSQQLPQSGKEAKAPGFALPELEHNLQLLIDLTEQEIIQNDRQLQYERDMVVNLFHELEKMTEVLDHEERVISNLSKVLEMVEECERRMQPDCSNPLTLDECARIFETLQDKYYEEYRMSDRVDLAVAIVYPLMKEYFKEWDPLKDCTYGTEIISKWKSLLENDQLLSHGGQDLSADAFHRLIWEVWMPFVRNIVTQWQPRNCDPMVDFLDSWVHIIPVWILDNILDQLIFPKLQKEVENWNPLTDTVPIHSWIHPWLPLMQARLEPLYSPIRSKLSSALQKWHPSDSSAKLILQPWKDVFTPGSWEAFMVKNIVPKLGMCLGELVINPHQQHMDAFYWVIDWEGMISVSSLVGLLEKHFFPKWLQVLCSWLSNSPNYEEITKWYLGWKSMFSDQVLAHPSVKDKFNEALDIMNRAVSSNVGAYMQPGARENIAYLTHTERRKDFQYEAMQERREAENMAQRGIGVAASSVPMNFKDLIETKAEEHNIVFMPVIGKRHEGKQLYTFGRIVIYIDRGVVFVQGEKTWVPTSLQSLIDMAK
B2: EF-hand domain-containing family member C2 (Homo sapiens), Q5JST6 (parent)
chain: MALPLLPGNSFNRNVGKEKFHKSQHWGFCNNVMMLVSDEKPGIGGEPLLGQKIKPKCSIYPKGDGSDVPSWVAFDKQVLSFDAYLEEEVLDKSQTNYRIRYYKIYFYPEDDTIQVNEPEVKNSGLLQGTSIRRHRITLPPPDEDQFYTVYHFNVGTEVVFYGRTFKIYDCDAFTRNFLRKIGVKVNPPVQCPEDPYMKIRREVVEHVEPLRPYESLDTLKQFLQYHGKILCFFCLWDDSVSMFGDRRELILHYFLCDDTIEIKELLPHSSGRDALKMFLRRSKLPKNCPPRVYQPGQITDRAVLNSYGDFIKNQADGYLFDRYKLGKVDQEFYKDSDLSLGVTINVWGRKVLLYDCDEFTKSYYKSKYGIENFTSVSCKPPSPPPKIERKFPPYNGFGSEEDSLRNCIDLKPTPHRRNFKKFMEKDSYGSKSNILRFFAKLVTDKCVDLDRMFVISYYLGDDTISVFEPIERNSGIAGGMFLKRSRVKKPGQEVFKSELSEYIKAEELYIGVTVNVNGYLFRLLNADEYTLNYMEQNTDKYPFSNLKLALQKLKQEEGKSRELKQVFKAADSKHTNMVDYNTFRDILMSLTVGNLAEQEFVTIARHYRVPEGTCSDMDFLIALAHEKFKKNMFENFDTFIYSCVYEDREKKNVLPTKDIKRLCKSSRLPLSDDLLESLLSRFEDSEKQIDYKSFFSALNWRKNPVPELQPASYLKERCEDVWLGMPSPIPAKYIDYWTFLKDAFGLEEE
B3: Probable thioesterase PNKD (Homo sapiens), Q8N490 (parent)
chain: MAAVVAATALKGRGARNARVLRGILAGATANKASHNRTRALQSHSSPEGKEEPEPLSPELEYIPRKRGKNPMKAVGLAWYSLYTRTWLGYLFYRQQLRRARNRYPKGHSKTQPRLFNGVKVLPIPVLSDNYSYLIIDTQAQLAVAVDPSDPRAVQASIEKEGVTLVAILCTHKHWDHSGGNRDLSRRHRDCRVYGSPQDGIPYLTHPLCHQDVVSVGRLQIRALATPGHTQGHLVYLLDGEPYKGPSCLFSGDLLFLSGCGRTFEGNAETMLSSLDTVLGLGDDTLLWPGHEYAEENLGFAGVVEPENLARERKMQWVQRQRLERKGTCPSTLGEERSYNPFLRTHCLALQEALGPGPGPTGDDDYSRAQLLEELRRLKDMHKSK
partner: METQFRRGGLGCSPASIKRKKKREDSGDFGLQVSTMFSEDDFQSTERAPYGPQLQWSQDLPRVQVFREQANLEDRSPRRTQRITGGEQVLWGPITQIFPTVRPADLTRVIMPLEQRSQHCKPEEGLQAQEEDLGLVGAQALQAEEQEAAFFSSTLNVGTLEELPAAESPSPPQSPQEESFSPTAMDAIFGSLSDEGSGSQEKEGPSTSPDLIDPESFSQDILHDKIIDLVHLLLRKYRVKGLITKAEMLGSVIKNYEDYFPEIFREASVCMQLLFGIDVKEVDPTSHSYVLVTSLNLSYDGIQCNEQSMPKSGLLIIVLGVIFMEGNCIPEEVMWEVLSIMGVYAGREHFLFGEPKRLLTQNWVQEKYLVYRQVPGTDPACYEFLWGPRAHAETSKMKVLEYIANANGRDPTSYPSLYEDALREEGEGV
B4: Protein BANP (Homo sapiens), Q8N9N5-2 (parent)
chain: MMSEHDLADVVQIAVEDLSPDHPVVLENHVVTDEDEPALKRQRLEINCQDPSIKSFLYSINQTICLRLDSIEAKLQALEATCKSLEEKLDLVTNKQHSPIQVPMVAGSPLGATQTCNKVRCAVPGRRQNTIVVKVPGQEDSHHEDGESGSEASDSVSSCGQAGSQSIGSNVTLITLNSEEDYPNGTWLGDENNPEMRVRCAIIPSDMLHISTNCRTAEKMALTLLDYLFHREVQAVSNLSGQGKHGKKQLDPLTIYGIRCHLFYKFGITESDWYRIKQSIDSKCRTAWRRKQRGQSLAVKSFSRRTPNSSSYCPSEPMMSTPPPASELPQPQPQPQALHYALANAQQVQIHQIGEDGQVQVIPQGHLHIAQVPQGEQVQITQDSEGNLQIHHVGQDGQVLQGAQLIAVASSDPAAAGVDGSPLQGSDIQVQYVQLAPVSDHTAGAQTAEALQPTLQPEMQLEHGAIQIQ
B5: Isoform 1 of Nuclear RNA export factor 3 (Homo sapiens), Q9H4D5-1 (parent)
chain: MSLPSGHTTGHTDQVVQRRARCWDIYQRRFSSRSEPVNPGMHSSSHQQQDGDAAMHGAHMDSPVRYTPYTISPYNRKGSFRKQDQTHVNMEREQKPPERRMEGNMPDGTLGSWFKITVPFGIKYNEKWLLNLIQNECSVPFVPVEFHYENMHASFFVENASIAYALKNVSGKIWDEDNEKISIFVNPAGIPHFVHRELKSEKVEQIKLAMNQQCDVSQEALDIQRLPFYPDMVNRDTKMASNPRKCMAASLDVHEENIPTVMSAGEMDKWKGIEPGEKCADRSPVCTTFSDTSSNINSILELFPKLLCLDGQQSPRATLCGTEAHKRLPTCKGSFFGSEMLKNLVLQFLQQYYLIYDSGDRQGLLSAYHDEACFSLSIPFNPEDSAPSSFCKFFKDSRNIKILKDPYLRGELLKHTKLDIVDSLSALPKTQHDLSSFLVDMWYQTEWMLCFSVNGVFKEVEGQSQGSVLAFTRTFIATPGSSSSLCIVNDKLFVRDTSHQGTQSALFTLVPTAFSSSVPAFSQEQQKMLPS
partner: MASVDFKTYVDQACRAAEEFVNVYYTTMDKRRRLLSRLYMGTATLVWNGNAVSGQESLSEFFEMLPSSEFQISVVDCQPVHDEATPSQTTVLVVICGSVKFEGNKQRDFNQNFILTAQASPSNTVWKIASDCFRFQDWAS
B6: Scaffold protein ILK (Homo sapiens), Q13418 (parent)
chain: MDDIFTQCREGNAVAVRLWLDNTENDLNQGDDHGFSPLHWACREGRSAVVEMLIMRGARINVMNRGDDTPLHLAASHGHRDIVQKLLQYKADINAVNEHGNVPLHYACFWGQDQVAEDLVANGALVSICNKYGEMPVDKAKAPLRELLRERAEKMGQNLNRIPYKDTFWKGTTRTRPRNGTLNKHSGIDFKQLNFLTKLNENHSGELWKGRWQGNDIVVKVLKVRDWSTRKSRDFNEECPRLRIFSHPNVLPVLGACQSPPAPHPTLITHWMPYGSLYNVLHEGTNFVVDQSQAVKFALDMARGMAFLHTLEPLIPRHALNSRSVMIDEDMTARISMADVKFSFQCPGRMYAPAWVAPEALQKKPEDTNRRSADMWSFAVLLWELVTREVPFADLSNMEIGMKVALEGLRPTIPPGISPHVCKLMKICMNEDPAKRPKFDMIVPILEKMQDK
partner: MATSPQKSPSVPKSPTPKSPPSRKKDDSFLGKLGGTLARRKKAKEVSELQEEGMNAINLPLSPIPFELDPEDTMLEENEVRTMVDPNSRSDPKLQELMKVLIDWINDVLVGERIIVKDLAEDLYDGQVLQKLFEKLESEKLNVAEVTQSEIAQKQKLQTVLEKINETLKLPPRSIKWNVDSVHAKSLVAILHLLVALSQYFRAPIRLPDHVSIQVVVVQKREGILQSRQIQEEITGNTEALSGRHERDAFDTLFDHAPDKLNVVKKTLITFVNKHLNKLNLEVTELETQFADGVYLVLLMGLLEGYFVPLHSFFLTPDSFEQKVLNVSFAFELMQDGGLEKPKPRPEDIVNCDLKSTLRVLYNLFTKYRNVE

Variants of: B1
Details: with zmat2_human ZMAT2, Q96NC0

effect of a mutation on the interaction	Variant
with no effect	R8Q

Variants of: B1
Details: with cox5b_human COX5B

effect of a mutation on the interaction	Variant
with no effect	R8Q

Variants of: B1
Details: with txlna_human TXLNA

effect of a mutation on the interaction	Variant
with no effect	R8Q

Variants of: B1
Details: with hook1_human HOOK1, Q9UJC3
hook1_human HOOK1, Q9UJC3, sequence (Q9UJC3 whole entry): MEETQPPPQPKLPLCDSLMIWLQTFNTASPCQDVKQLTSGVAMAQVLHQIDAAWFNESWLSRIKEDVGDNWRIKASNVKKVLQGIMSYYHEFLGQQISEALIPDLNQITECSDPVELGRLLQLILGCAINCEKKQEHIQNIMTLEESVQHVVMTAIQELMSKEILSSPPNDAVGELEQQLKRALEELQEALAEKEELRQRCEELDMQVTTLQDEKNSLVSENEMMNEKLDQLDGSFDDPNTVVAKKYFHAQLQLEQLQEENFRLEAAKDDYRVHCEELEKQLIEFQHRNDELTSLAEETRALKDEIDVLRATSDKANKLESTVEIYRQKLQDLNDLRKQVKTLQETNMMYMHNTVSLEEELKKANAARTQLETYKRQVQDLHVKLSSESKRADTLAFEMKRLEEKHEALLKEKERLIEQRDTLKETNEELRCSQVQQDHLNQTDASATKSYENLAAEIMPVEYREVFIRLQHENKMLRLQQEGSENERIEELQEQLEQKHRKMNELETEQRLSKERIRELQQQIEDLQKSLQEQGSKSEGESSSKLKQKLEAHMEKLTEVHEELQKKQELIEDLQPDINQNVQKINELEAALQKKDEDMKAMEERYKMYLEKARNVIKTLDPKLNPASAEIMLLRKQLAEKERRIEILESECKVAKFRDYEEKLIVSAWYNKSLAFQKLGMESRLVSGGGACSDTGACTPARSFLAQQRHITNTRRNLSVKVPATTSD

effect of a mutation on the interaction	Variant
with no effect	R8Q

Variants of: B1
Details: with tnnt1_human TNNT1, P13805
tnnt1_human TNNT1, P13805, sequence (P13805 whole entry): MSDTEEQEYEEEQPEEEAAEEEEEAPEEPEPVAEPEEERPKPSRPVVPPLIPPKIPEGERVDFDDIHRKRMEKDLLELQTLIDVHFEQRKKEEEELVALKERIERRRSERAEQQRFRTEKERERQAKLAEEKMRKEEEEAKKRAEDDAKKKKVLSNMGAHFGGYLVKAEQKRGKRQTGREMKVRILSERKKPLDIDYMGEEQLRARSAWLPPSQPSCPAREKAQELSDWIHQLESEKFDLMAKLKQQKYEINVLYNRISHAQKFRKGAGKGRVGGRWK

effect of a mutation on the interaction	Variant
with no effect	R8Q

Variants of: B1
Details: with coq8a_human COQ8A

effect of a mutation on the interaction	Variant
with no effect	R8Q

Variants of: B1
Details: with smce1_human SMARCE1, Q969G3

effect of a mutation on the interaction	Variant
with no effect	R8Q

Variants of: B1
Details: with bmf_human BMF

effect of a mutation on the interaction	Variant
with no effect	R8Q

Variants of: B1
Details: with fa13c_human FAM13C

effect of a mutation on the interaction	Variant
with no effect	R8Q

Variants of: B1
Details: with prp31_human PRPF31, Q8WWY3
prp31_human PRPF31, Q8WWY3, sequence (Q8WWY3 whole entry): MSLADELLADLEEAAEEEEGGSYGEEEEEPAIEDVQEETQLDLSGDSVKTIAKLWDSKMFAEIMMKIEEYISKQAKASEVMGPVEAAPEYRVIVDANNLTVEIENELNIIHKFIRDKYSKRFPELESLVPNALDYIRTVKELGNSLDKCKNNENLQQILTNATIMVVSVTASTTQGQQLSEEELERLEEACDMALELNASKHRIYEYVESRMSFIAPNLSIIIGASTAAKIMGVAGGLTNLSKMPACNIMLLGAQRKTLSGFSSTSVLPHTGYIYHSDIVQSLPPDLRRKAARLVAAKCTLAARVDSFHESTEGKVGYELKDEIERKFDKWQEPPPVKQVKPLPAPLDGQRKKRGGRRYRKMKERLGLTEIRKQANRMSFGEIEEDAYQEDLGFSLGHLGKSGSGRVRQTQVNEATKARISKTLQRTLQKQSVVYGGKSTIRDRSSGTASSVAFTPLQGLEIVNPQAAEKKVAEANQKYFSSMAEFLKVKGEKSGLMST

effect of a mutation on the interaction	Variant
with no effect	R8Q

Variants of: B1
Details: with snw1_human SNW1, Q13573
snw1_human SNW1, Q13573, sequence (Q13573 whole entry): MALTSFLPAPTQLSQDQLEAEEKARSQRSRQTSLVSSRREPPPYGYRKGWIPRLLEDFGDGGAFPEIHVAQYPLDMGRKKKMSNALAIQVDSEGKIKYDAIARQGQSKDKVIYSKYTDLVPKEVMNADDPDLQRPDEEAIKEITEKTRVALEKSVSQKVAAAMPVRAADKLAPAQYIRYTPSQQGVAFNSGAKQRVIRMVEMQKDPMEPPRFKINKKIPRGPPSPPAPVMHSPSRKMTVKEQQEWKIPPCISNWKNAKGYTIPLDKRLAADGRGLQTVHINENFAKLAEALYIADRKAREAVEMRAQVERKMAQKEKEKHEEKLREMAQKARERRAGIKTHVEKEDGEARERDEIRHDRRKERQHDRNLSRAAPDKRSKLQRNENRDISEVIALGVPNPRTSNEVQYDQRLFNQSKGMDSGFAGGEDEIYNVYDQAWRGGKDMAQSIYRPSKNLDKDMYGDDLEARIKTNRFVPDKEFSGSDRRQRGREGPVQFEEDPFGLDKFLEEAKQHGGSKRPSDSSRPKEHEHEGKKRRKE

effect of a mutation on the interaction	Variant
with no effect	R8Q

Variants of: B1
Details: with sfr1_human SFR1, Q86XK3
sfr1_human SFR1, Q86XK3, sequence (Q86XK3 whole entry): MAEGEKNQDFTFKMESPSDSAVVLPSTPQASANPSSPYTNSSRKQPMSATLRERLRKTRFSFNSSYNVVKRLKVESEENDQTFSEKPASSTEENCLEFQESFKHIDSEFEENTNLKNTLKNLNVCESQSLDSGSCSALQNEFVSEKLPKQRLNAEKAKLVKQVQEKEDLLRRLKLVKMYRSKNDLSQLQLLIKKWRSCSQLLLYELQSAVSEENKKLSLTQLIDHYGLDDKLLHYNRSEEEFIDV

effect of a mutation on the interaction	Variant
with no effect	R8Q

Variants of: B1
Details: with zfy26_human ZFYVE26, Q68DK2

effect of a mutation on the interaction	Variant
with no effect	R8Q

Variants of: B1
Details: with abi2_human ABI2, Q9NYB9
abi2_human ABI2, Q9NYB9, sequence (Q9NYB9 whole entry): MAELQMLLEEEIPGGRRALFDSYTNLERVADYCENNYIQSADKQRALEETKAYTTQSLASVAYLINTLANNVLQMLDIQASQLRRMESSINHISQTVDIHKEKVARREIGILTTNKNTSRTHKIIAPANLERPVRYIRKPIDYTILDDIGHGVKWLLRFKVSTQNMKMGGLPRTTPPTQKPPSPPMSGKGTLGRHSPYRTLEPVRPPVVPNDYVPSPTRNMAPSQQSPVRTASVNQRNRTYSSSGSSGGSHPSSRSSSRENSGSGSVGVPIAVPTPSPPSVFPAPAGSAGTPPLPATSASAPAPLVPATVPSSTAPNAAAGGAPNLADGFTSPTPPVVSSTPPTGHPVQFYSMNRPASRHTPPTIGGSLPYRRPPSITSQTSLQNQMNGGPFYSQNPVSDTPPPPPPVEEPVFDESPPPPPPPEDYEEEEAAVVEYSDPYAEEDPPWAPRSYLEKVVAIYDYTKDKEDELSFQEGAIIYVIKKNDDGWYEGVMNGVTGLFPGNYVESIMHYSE

effect of a mutation on the interaction	Variant
with no effect	R8Q

Variants of: B1
Details: with cc121_human CCDC121, Q6ZUS5
cc121_human CCDC121, Q6ZUS5, sequence (Q6ZUS5 whole entry): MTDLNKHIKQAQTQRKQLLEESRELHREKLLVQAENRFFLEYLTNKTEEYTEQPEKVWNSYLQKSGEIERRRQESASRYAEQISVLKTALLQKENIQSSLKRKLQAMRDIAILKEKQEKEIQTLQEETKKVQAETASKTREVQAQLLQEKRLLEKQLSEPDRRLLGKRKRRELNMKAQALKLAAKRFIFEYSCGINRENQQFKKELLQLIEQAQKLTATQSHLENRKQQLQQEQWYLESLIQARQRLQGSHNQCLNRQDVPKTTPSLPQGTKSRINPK

effect of a mutation on the interaction	Variant
with no effect	R8Q

Variants of: B1
Details: with KRT6A

effect of a mutation on the interaction	Variant
with no effect	R8Q

Variants of: B2
Details: with plod3_human PLOD3, O60568
plod3_human PLOD3, O60568, sequence (O60568 whole entry): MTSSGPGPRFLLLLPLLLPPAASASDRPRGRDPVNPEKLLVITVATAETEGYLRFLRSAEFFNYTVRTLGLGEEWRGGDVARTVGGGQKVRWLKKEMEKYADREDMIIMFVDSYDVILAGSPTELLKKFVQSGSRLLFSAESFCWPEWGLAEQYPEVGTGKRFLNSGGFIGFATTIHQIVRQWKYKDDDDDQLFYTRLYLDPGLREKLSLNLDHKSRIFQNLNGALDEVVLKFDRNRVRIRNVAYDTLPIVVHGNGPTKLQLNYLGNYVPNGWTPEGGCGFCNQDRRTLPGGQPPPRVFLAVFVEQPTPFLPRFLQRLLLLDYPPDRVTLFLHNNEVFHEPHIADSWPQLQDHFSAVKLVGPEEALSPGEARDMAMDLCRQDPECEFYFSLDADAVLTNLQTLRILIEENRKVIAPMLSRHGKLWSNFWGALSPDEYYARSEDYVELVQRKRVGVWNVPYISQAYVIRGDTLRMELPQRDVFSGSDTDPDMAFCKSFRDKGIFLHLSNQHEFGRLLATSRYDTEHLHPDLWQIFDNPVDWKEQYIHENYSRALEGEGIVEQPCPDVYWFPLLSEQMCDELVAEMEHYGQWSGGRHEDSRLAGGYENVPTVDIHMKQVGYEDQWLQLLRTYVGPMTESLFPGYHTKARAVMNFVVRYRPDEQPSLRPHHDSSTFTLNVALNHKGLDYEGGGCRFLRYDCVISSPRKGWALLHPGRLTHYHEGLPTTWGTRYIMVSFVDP

effect of a mutation on the interaction	Variant
disrupting interaction strength	N31S

Variants of: B2
Details: with ptk6_human PTK6, Q13882

effect of a mutation on the interaction	Variant
disrupting interaction strength	N31S

Variants of: B2
Details: with ercc3_human ERCC3, P19447
ercc3_human ERCC3, P19447, sequence (P19447 whole entry): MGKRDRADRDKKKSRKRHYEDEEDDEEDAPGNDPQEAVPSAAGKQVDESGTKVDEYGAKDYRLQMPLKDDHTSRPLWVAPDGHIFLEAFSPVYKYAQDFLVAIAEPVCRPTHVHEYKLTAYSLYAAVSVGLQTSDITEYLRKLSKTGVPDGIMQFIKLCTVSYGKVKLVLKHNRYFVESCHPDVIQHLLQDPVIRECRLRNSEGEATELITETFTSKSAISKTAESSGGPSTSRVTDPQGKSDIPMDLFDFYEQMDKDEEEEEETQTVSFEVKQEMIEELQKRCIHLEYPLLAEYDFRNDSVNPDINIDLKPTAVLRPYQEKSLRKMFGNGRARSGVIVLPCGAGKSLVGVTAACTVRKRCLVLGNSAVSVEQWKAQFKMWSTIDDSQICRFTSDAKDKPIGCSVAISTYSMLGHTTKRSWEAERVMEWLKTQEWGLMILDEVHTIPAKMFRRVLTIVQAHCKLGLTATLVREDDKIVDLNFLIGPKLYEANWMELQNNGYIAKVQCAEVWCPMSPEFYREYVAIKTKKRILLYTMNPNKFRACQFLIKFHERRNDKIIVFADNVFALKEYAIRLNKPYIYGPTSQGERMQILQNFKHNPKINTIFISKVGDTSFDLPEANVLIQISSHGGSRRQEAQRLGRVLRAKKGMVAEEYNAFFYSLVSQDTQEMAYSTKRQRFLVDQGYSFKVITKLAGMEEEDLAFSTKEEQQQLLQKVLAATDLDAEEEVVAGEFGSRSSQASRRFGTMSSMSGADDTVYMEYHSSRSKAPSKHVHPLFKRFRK

effect of a mutation on the interaction	Variant
disrupting interaction strength	N31S

Variants of: B2
Details: with mk09_human MAPK9, P45984

effect of a mutation on the interaction	Variant
disrupting interaction strength	N31S

Variants of: B3
Details: with magab_human MAGEA11, P43364

effect of a mutation on the interaction	Variant
with no effect	R377Q

Variants of: B4
Details: with kcc2d_human CAMK2D

effect of a mutation on the interaction	Variant
with no effect	A162V

Variants of: B4
Details: with FAM117B

effect of a mutation on the interaction	Variant
with no effect	A162V

Variants of: B4
Details: with aakb2_human PRKAB2, O43741
aakb2_human PRKAB2, O43741, sequence (O43741 whole entry): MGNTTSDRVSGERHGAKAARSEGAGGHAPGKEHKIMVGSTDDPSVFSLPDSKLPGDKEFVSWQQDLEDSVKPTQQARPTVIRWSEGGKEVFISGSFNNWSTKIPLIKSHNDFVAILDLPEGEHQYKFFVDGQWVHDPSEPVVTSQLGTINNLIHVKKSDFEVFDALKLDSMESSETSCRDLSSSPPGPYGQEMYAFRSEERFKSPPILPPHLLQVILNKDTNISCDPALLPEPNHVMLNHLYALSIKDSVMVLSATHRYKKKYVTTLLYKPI

effect of a mutation on the interaction	Variant
with no effect	A162V

Variants of: B4
Details: with pf21a_human PHF21A

effect of a mutation on the interaction	Variant
with no effect	A162V

Variants of: B5
Details: with nxt1_human NXT1, Q9UKK6

effect of a mutation on the interaction	Variant
with no effect	T9K

Variants of: B5
Details: with nxt1_human NXT1, Q9UKK6
Remark: another data set of the same source

effect of a mutation on the interaction	Variant
disrupting interaction strength	R409W

Variants of: B6
Details: with parva_human PARVA

effect of a mutation on the interaction	Variant
with no effect	R46H
with no effect	M425I
with no effect	L311I
